± gives the standard deviation of the averaged measurements.
B1: library; a variant is named by its letters at N, in order (parent)
chain: GCUGUCACCGGUGCUUGGUACGUUAUAUUCAGCCGGUCUGAUGAGUCUNNNNNNAGACGAAACAGC

Assays:
(6R,S)-folinic acid [1] = variants of: B1; test: normalized RNA/DNA level without ligand (relative to sTRSVctl = 100) (log10 (% of sTRSVctl)); HEK293T overexpressing SLC46A1; higher = less ribozyme self-cleavage, higher mRNA level; conditions: without (6R,S)-folinic acid; ligand present: no
Summary of the method: (§1)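 HEK293T cells received ligand, where used, 1 h before being transfected with 4 µg per 6-well well of library plasmids encoding reporter-linked ribozyme switches. After 72 h, RNA was extracted with EDTA and sequenced. RNA level was derived from RNA reads per DNA read, normalized to a spiked-in non-cleaving sequence or the top sequences, then scaled and log-transformed. Values were ×100 then log10, the top set was 25 sequences, and the minimum was 100 DNA reads.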

(6R,S)-folinic acid [2] = variants of: B1; test: normalized RNA/DNA level with ligand (relative to sTRSVctl = 100) (log10 (% of sTRSVctl)); HEK293T overexpressing SLC46A1; ligand concentration (+) RNA-Seq: 6 mM; higher = less ribozyme self-cleavage, higher mRNA level; conditions: with (6R,S)-folinic acid; ligand present: yes
Summary of the method: as §1

| Variant | normalized RNA/DNA level without ligand (log10) ((6R,S)-folinic acid [1]) | normalized RNA/DNA level with ligand (log10) ((6R,S)-folinic acid [2]) |
| --- | --- | --- |
| UAGUGU | 1.901 ± 0.008 | 1.99 ± 0.0065 |
| AAGCGU | 1.956 ± 0.0071 | 2.02 ± 0.04 |
| AAGCGG | 1.941 ± 0.005 | 2 ± 0.054 |
| CAGGGG | 1.87 ± 0.049 | 1.996 ± 0.016 |
| CAGGGA | 1.962 ± 0.005 | 2 ± 0.029 |
| CAGGGU | 1.974 ± 0.014 | 2 ± 0.031 |
| CAGGGC | 1.994 ± 0.013 | 2.03 ± 0.046 |
| CAUCUU | 2.034 ± 0.0024 | 2 ± 0.038 |
| CAUCUA | 2.05 ± 0.022 | 2.074 ± 0.012 |
| CAUCUG | 2.03 ± 0.032 | 2.02 ± 0.025 |
| AAGGGC | 2.0351 ± 4.5e-05 | 2.05 ± 0.045 |
| AAGGGG | 1.902 ± 0.011 | 2.038 ± 0.011 |
| CAGUCA | 1.967 ± 0.0097 | 1.96 ± 0.058 |
| CAGUCC | 2.051 ± 0.011 | 2.04 ± 0.037 |
| CAGUCU | 2.018 ± 0.0006 | 2.03 ± 0.038 |
| GAUCAU | 2.023 ± 0.008 | 2.02 ± 0.026 |
| GAUCAC | 2.03 ± 0.031 | 2.034 ± 0.0087 |
| GAUCAG | 2.03 ± 0.041 | 2.05 ± 0.028 |
| GAUCAA | 2.001 ± 0.0021 | 2 ± 0.027 |
| CAGUUU | 1.989 ± 0.011 | 2.03 ± 0.039 |

| Variant | normalized RNA/DNA level without ligand (log10) ((6R,S)-folinic acid [1]) | normalized RNA/DNA level with ligand (log10) ((6R,S)-folinic acid [2]) |
| --- | --- | --- |
| CAGUUG | 2.041 ± 0.0043 | 2.06 ± 0.013 |
| GAUACC | 2.003 ± 0.0086 | 2.026 ± 0.0083 |
| GAUACU | 2.001 ± 0.0036 | 2.01 ± 0.036 |
| CAGGUC | 2.08 ± 0.0023 | 2.04 ± 0.045 |
| CAGGUU | 2 ± 0.032 | 2 ± 0.022 |
| AAUGAC | 1.9695 ± 0.0006 | 1.99 ± 0.037 |
| AAUGAU | 1.937 ± 0.012 | 2 ± 0.051 |
| GAUUCC | 2.064 ± 0.0098 | 2.043 ± 0.019 |
| GAUUCG | 1.978 ± 0.0021 | 2.01 ± 0.042 |
| UAGGUU | 1.961 ± 0.011 | 2 ± 0.026 |
| UAGGUC | 2.05 ± 0.022 | 2 ± 0.054 |
| UAUGAA | 1.873 ± 0.016 | 1.98 ± 0.023 |
| AAUCGA | 1.974 ± 0.019 | 2 ± 0.029 |
| AAUCGU | 1.99 ± 0.0073 | 2.013 ± 0.0078 |
| AAGUGG | 1.87 ± 0.01 | 2.02 ± 0.041 |
| AAGUGC | 1.984 ± 0.0023 | 2.01 ± 0.052 |
| UAGUUC | 2.0145 ± 0.00068 | 2.03 ± 0.027 |
| UAGUUA | 1.932 ± 0.015 | 1.984 ± 0.0094 |
| UAGUUU | 2.01 ± 0.0059 | 2.02 ± 0.033 |
| GAGGAA | 1.952 ± 0.0031 | 2.01 ± 0.03 |

| Variant | normalized RNA/DNA level without ligand (log10) ((6R,S)-folinic acid [1]) | normalized RNA/DNA level with ligand (log10) ((6R,S)-folinic acid [2]) |
| --- | --- | --- |
| GAGGAG | 1.9 ± 0.013 | 2.031 ± 0.017 |
| GAGGAC | 1.947 ± 0.013 | 2.014 ± 0.016 |
| UAUUAU | 1.931 ± 0.012 | 1.985 ± 0.01 |
| UAGGCA | 1.972 ± 0.00036 | 2.027 ± 0.02 |
| UAGGCU | 2.03 ± 0.024 | 2.05 ± 0.061 |
| UAGGCC | 2.047 ± 0.004 | 2.04 ± 0.044 |
| UAGGCG | 1.762 ± 0.0037 | 1.97 ± 0.032 |
| GAUCGC | 1.998 ± 0.016 | 2.032 ± 0.014 |
| GAUCGA | 2.033 ± 0.008 | 2.02 ± 0.036 |
| GAUCGU | 2.02 ± 9.8e-05 | 2.02 ± 0.052 |
| GAUCGG | 2.084 ± 0.015 | 2.07 ± 0.04 |
| UAGUCC | 2.0087 ± 0.0016 | 2.03 ± 0.057 |
| UAGUCG | 1.813 ± 0.0049 | 1.99 ± 0.043 |
| UAGUCA | 1.98 ± 0.021 | 2.01 ± 0.038 |
| UAGUCU | 2.0118 ± 0.0019 | 2.02 ± 0.037 |
| AAGGUU | 1.974 ± 0.015 | 2.02 ± 0.025 |
| CAUUCU | 2.022 ± 0.0089 | 2.01 ± 0.056 |
| CAUUCA | 1.96 ± 0.02 | 1.9724 ± 0.001 |

From the supplement of paper PMC6757056
